Test results from publication PMC11370418.

Legend:
Test in all cases: …
[1] = target: monomeric enhanced green fluorescent protein (meGFP)
[2] = target: DDIT3-GS-DDIT3 synthetic AD (human)
[3] = target: MYB-GS-MYB synthetic AD (human)

## TFIID domain TAF12 (from UniProt Q16514 1-161) (natural protein)
[1]
  Kd: > 100 µM

## P300 KIX domain (domain or fragment)
[2]
  fold change of Kd against single-site DDIT3: < 1.1 fold
[3]
  fold change of Kd against single-site MYB: < 1.1 fold
